Assays:
[1] = molecular target: T1, recombinant CSP (Plasmodium falciparum circumsporozoite protein, 3D7) (Plasmodium falciparum, UniProt Q7K740 19-374); test: SPR (Carterra LSA), IgG captured, CSP analyte
T1 construct: also called CSP (3D7)

[2] = molecular target: T2, NANP6 peptide (NANPNANPNANPNANPNANPNANP) (Plasmodium falciparum, N-terminal biotin-aminohexanoic acid tag; unmodified C-terminus); test: SPR (Carterra LSA, 25 C), antibody immobilised on the chip, peptide as analyte
T2 construct: Synthetic peptide (CPC scientific); also called (NANPx6) peptide; long, major repeat peptide
T2 peptide: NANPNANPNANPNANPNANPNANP

[3] = molecular target: T3, NVDP3NANP2 peptide (NVDPNANPNVDPNANPNVDP) (Plasmodium falciparum, acetylated at N-terminus; amidated at C-terminus); test: as above
T3 construct: Synthetic peptide; also called long, minor repeat peptide
T3 peptide: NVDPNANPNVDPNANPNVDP

T1 sequence (Q7K740 19-374 limits assumed): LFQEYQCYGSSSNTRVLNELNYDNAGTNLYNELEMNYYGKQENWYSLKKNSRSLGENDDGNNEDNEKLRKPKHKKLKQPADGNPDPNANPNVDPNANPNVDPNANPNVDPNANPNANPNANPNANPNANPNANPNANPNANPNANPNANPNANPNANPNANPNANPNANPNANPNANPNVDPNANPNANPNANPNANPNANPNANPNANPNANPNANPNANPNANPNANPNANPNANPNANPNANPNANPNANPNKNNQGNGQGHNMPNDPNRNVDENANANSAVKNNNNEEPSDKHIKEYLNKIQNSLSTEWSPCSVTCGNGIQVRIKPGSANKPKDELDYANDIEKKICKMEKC

B1: AB-001558 (antibody, V domains shown)
VH: QVQLVESGGGVVQPGRSLRLSCAASGFTFSSYGMHWVRQAPGKGLEWVAVIWYDGNNKYYVDSVKGRFTISRDNSKNTLYLQMNSLRAEDTAVYYCARDHDADYVEKWGAFDLWGQGTMVTVSS
VL: EIVMTQSPATLSVSPGERATLSCRASQSVSSNLAWYQQKPGQAPRLLIYGASARATGIPARFSGSGSGTEFTLTISSLQSEDFAVYYCQQYNNGRTFGQGTKVEIT
[1]
  Kd: 1.05 nM

B2: AB-007163 (antibody, V domains shown)
VH: QVHLLESGGTVVQPGGSLRLSCEASGFIFSDYGMHWVRQVPGKGLEWVAVIWFDGSQKYYGDSVKGRFTVSRDNSKNTLYLQMNTLRADDTGIYYCATDIRGAYKVTDGGFDQWGHGTLVTVSP
VL: QSVLTQPPSISGAPGQRVTISCTGAGSNIGAGYEVHWYQQLPGTAPKLLMFADNNRPSGVPDRFSGSKSGTSASLAITGLQAEDEADYYCQSYDISLKNFVFGTGTTVTVL
[2]
  binding result: binds
[3]
  binding result: binds
